Patent US20050020492A1 (MERCK, published 2005)
Like-named read-outs stand apart in the source and are kept apart here. Positions of bridges follow the written chain, without caps; N, C: chain ends. Non-standard residues stand in square brackets, D forms with d. Cha = N[C@@H](CC1CCCCC1)C(=O)O

Key:
human MCH-1R [1] = biological target: T1, human MCH-1R (human, UniProt Q99705 1-353); test: cell-based or functional assay
human MCH-2R [2] = biological target: T2, human MCH-2R (human, UniProt Q969V1 1-340); test: cell-based or functional assay
human MCH-2R [3] = biological target: T2, human MCH-2R; test: SPA, displacement of [125I]-[Phe13,Tyr19]-hMCH, MCH-2R membranes
Procedure: (§1) After equilibrating at room temperature for 3 hours, the plates were read in a TopCount (Packard, Meriden, Conn.). IC₅₀ calculations were performed using Prism 3.0 (GraphPad. Software, San Diego, Calif.). The IC₅₀ values were measured in three different experiments.

human MCH-1R [4] = biological target: T1, human MCH-1R; test: SPA, displacement of [125I]-[Phe13,Tyr19]-hMCH, CHO/MCH-1R membranes
Procedure: as §1

human MCH-2R [5] = biological target: T2, human MCH-2R; test: SPA, displacement of [125I]-[Phe13,Tyr19]-hMCH, MCH-2R membranes; remark: listed apart in the source
Procedure: as §1

human MCH-1R [6] = biological target: T1, human MCH-1R; test: ratio of the two SPA IC50s
human MCH-1R [7] = biological target: T1, human MCH-1R; test: cell-based or functional assay; remark: listed apart in the source
human MCH-2R [8] = biological target: T2, human MCH-2R; test: cell-based or functional assay; remark: listed apart in the source

T2 sequence (Q969V1 whole entry): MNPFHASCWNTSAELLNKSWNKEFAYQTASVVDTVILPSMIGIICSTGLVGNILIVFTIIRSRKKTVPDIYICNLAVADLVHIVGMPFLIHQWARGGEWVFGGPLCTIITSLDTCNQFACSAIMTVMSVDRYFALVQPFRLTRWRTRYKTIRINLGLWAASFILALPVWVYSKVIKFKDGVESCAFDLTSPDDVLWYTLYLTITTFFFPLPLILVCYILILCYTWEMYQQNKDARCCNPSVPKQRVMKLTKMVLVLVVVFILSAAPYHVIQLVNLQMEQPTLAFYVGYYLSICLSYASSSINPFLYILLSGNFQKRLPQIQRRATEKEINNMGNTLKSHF
T1 sequence (Q99705 whole entry): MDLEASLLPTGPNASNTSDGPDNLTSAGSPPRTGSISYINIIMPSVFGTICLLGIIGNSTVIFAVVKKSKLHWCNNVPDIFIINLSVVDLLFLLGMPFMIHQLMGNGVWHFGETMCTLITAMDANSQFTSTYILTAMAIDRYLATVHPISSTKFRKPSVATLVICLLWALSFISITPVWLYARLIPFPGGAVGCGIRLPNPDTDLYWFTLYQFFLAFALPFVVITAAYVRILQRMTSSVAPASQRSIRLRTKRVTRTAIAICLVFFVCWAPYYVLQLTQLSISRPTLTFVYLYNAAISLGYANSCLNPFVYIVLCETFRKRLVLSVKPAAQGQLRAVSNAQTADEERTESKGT

Row | Activation %, aequorin bioluminescence (human MCH-1R [1]) [%] | Activation %, aequorin bioluminescence (human MCH-2R [2]) [%] | IC50 (human MCH-2R [3]) [nM] | IC50 (human MCH-1R [4]) [nM] | IC50 (human MCH-2R [5]) [nM] | Selectivity 2/1 (MCH-2R/MCH-1R IC50 ratio) (human MCH-1R [6]) [ratio] | Activation %, aequorin bioluminescence (human MCH-1R [7]) [%] | EC50, aequorin bioluminescence (human MCH-1R [7]) [nM] | Selectivity 2/1 (MCH-2R/MCH-1R EC50 activity ratio) (human MCH-1R [7]) [ratio] | Activation %, aequorin bioluminescence (human MCH-2R [8]) [%] | EC50, aequorin bioluminescence (human MCH-2R [8]) [nM] | EC50, aequorin bioluminescence (human MCH-1R [1]) [nM] | EC50, aequorin bioluminescence (human MCH-2R [2]) [nM] | Binder
1 | – | – | – | 0.28 | 490 | 1800 | 126 | 51 | 4.7 | 86 | 240 | – | – | Ac-RCMLNRVYRPC-NH2 (disulfide 2-11 (inferred), also called Asn^10 peptide) [SEQ. ID. NO. 25 (Asn^10 analog of Ac-hMCH(6-16)-NH2)]
2 | – | – | – | 0.54 | 55 | 100 | 120 | 130 | 0.7 | 87 | 89 | – | – | Ac-RCMLSRVYRPC-NH2 (disulfide 2-11 (inferred), also called Ser^10 peptide) [SEQ. ID. NO. 26 (Ser^10 analog of Ac-hMCH(6-16)-NH2)]
3 | – | – | – | 290 | – | – | 21 | > 10000 | – | 22 | > 10000 | – | – | Ac-RCMLERVYRPC-NH2 (disulfide 2-11 (inferred), also called Glu^10 peptide) [SEQ. ID. NO. 28 (Glu^10 analog of Ac-hMCH(6-16)-NH2)]
4 | 109 | 51 | 2700 | 0.77 | – | – | – | – | – | – | – | 160 | 4900 | XCMLGRVYRPC (HELM PEPTIDE1{[ac].[dA].C.M.L.G.R.V.Y.R.P.C.[am]}$PEPTIDE1,PEPTIDE1,3:R3-12:R3$$$V2.0; SMILES CSCC[C@@H]1NC(=O)[C@@H](NC(=O)[C@@H](C)NC(C)=O)CSSC[C@@H](C(N)=O)NC(=O)[C@@H]2CCCN2C(=O)[C@H](CCCNC(=N)N)NC(=O)[C@H](Cc2ccc(O)cc2)NC(=O)[C@H](C(C)C)NC(=O)[C@H](CCCNC(=N)N)NC(=O)CNC(=O)[C@H](CC(C)C)NC1=O) [SEQ. ID. NO. 6 (Ac-D-Ala^6 analog of Ac-hMCH(6-16)-NH2)]
5 | 49 | 102 | – | – | – | – | – | – | – | – | – | – | – | XCMLGRVYRPC (position 6 is Gva, des-amino-arginine (5-guanidinovaleric acid), no acetyl; C-terminal amide; disulfide cycle) [SEQ. ID. NO. 3 (Gva^6 analog of Ac-hMCH(6-16)-NH2)]
6 | 117 | – | 1250 | 0.9 | – | – | – | – | – | – | – | 66 | 510 | XCMLGRVYRPC (HELM PEPTIDE1{[ac].[dF].C.M.L.G.R.V.Y.R.P.C.[am]}$PEPTIDE1,PEPTIDE1,3:R3-12:R3$$$V2.0; SMILES CSCC[C@@H]1NC(=O)[C@@H](NC(=O)[C@@H](Cc2ccccc2)NC(C)=O)CSSC[C@@H](C(N)=O)NC(=O)[C@@H]2CCCN2C(=O)[C@H](CCCNC(=N)N)NC(=O)[C@H](Cc2ccc(O)cc2)NC(=O)[C@H](C(C)C)NC(=O)[C@H](CCCNC(=N)N)NC(=O)CNC(=O)[C@H](CC(C)C)NC1=O) [SEQ. ID. NO. 9 (Ac-D-Phe^6 analog of Ac-hMCH(6-16)-NH2)]
7 | – | – | – | 1.3 | 18 | 14 | 7 | > 10000 | – | 105 | 81 | – | – | RCMLXRVYRPC (HELM PEPTIDE1{[ac].R.C.M.L.[O=C([C@H](Cc1ccc2ccccc2c1)N[*:1])[*:2]].R.V.Y.R.P.C.[am]}$PEPTIDE1,PEPTIDE1,3:R3-12:R3$$$V2.0; SMILES CSCC[C@@H]1NC(=O)[C@@H](NC(=O)[C@H](CCCNC(=N)N)NC(C)=O)CSSC[C@@H](C(N)=O)NC(=O)[C@@H]2CCCN2C(=O)[C@H](CCCNC(=N)N)NC(=O)[C@H](Cc2ccc(O)cc2)NC(=O)[C@H](C(C)C)NC(=O)[C@H](CCCNC(=N)N)NC(=O)[C@H](Cc2ccc3ccccc3c2)NC(=O)[C@H](CC(C)C)NC1=O) [SEQ. ID. NO. 21 (Nal(2′)^10 analog of Ac-hMCH(6-16)-NH2)]
8 | – | – | – | 5 | 55 | 11 | 76 | 1200 | 0.25 | 74 | 300 | – | – | Ac-RCML[Cha]RVYRPC-NH2 (disulfide 2-11) [SEQ. ID. NO. 19 (Cha^10 analog of Ac-hMCH(6-16)-NH2)]

Continued, binder first:

Row | Binder | Activation %, aequorin bioluminescence (human MCH-1R [1]) [%] | Activation %, aequorin bioluminescence (human MCH-2R [2]) [%] | IC50 (human MCH-2R [3]) [nM] | IC50 (human MCH-1R [4]) [nM] | IC50 (human MCH-2R [5]) [nM] | Selectivity 2/1 (MCH-2R/MCH-1R IC50 ratio) (human MCH-1R [6]) [ratio] | Activation %, aequorin bioluminescence (human MCH-1R [7]) [%] | EC50, aequorin bioluminescence (human MCH-1R [7]) [nM] | Selectivity 2/1 (MCH-2R/MCH-1R EC50 activity ratio) (human MCH-1R [7]) [ratio] | Activation %, aequorin bioluminescence (human MCH-2R [8]) [%] | EC50, aequorin bioluminescence (human MCH-2R [8]) [nM] | EC50, aequorin bioluminescence (human MCH-1R [1]) [nM] | EC50, aequorin bioluminescence (human MCH-2R [2]) [nM]
9 | XCMLGRVYRPC (N-terminal acetyl; D-Nle (D-norleucine) at position 6; C-terminal amide; disulfide cycle) [SEQ. ID. NO. 7 (Ac-D-Nle^6 analog of Ac-hMCH(6-16)-NH2)] | 115 | 69 | 1460 | – | – | – | – | – | – | – | – | – | –
10 | XCMLGRVYRPC (N-terminal acetyl; D-Arg at position 6; C-terminal amide; disulfide cycle) [SEQ. ID. NO. 5 (Ac-D-Arg^6 analog of Ac-hMCH(6-16)-NH2)] | 97 | – | – | – | – | – | – | – | – | – | – | – | –
11 | Ac-RCMLFRVYRPC-NH2 (disulfide 2-11 (inferred)) [SEQ. ID. NO. 20 (Phe^10 analog of Ac-hMCH(6-16)-NH2)] | – | – | – | 0.1 | 1.9 | 19 | 75 | 66 | 0.75 | 88 | 50 | – | –
12 | Ac-RCMLKRVYRPC-NH2 (disulfide 2-11 (inferred)) [SEQ. ID. NO. 24 (Lys^10 analog of Ac-hMCH(6-16)-NH2)] | – | – | – | 17 | 1460 | 86 | 43 | 5700 | 1 | 40 | 6050 | – | –
13 | Ac-RCMLRRVYRPC-NH2 (disulfide 2-11 (inferred)) [SEQ. ID. NO. 23 (Arg^10 analog of Ac-hMCH(6-16)-NH2)] | – | – | – | 640 | 420 | 0.7 | 7 | > 10000 | – | 38 | 1660 | – | –
14 | Ac-RCMLPRVYRPC-NH2 (disulfide 2-11 (inferred)) [SEQ. ID. NO. 22 (Pro^10 analog of Ac-hMCH(6-16)-NH2)] | – | – | – | 760 | 3500 | 5 | 10 | > 10000 | – | 13 | > 10000 | – | –
15 | XCMLGRVYRPC (not fully specified; N-terminal acetyl; D-Glu at position 6; C-terminal amide; disulfide cycle) [SEQ. ID. NO. 12 (Ac-D-Glu^6 analog of Ac-hMCH(6-16)-NH2)] | 100 | 20 | – | – | – | – | – | – | – | – | – | – | –
16 | RCMLXRVYRPC (HELM PEPTIDE1{[ac].R.C.M.L.[Cit].R.V.Y.R.P.C.[am]}$PEPTIDE1,PEPTIDE1,3:R3-12:R3$$$V2.0; SMILES CSCC[C@@H]1NC(=O)[C@@H](NC(=O)[C@H](CCCNC(=N)N)NC(C)=O)CSSC[C@@H](C(N)=O)NC(=O)[C@@H]2CCCN2C(=O)[C@H](CCCNC(=N)N)NC(=O)[C@H](Cc2ccc(O)cc2)NC(=O)[C@H](C(C)C)NC(=O)[C@H](CCCNC(=N)N)NC(=O)[C@H](CCCNC(N)=O)NC(=O)[C@H](CC(C)C)NC1=O, also called Cit^10 peptide) [SEQ. ID. NO. 27 (Cit^10 analog of Ac-hMCH(6-16)-NH2)] | – | – | – | 3.1 | 130 | 42 | 91 | 920 | 0.3 | 68 | 310 | – | –
17 | XCMLGRVYRPC (D-Arg at position 6, no acetyl; C-terminal amide; disulfide cycle) [SEQ. ID. NO. 4 (D-Arg^6 analog lacking an Ac group)] | 130 | – | 47 | 0.35 | – | – | – | – | – | – | – | 107 | 55
18 | XCMLGRVYRPC (N-terminal acetyl; D-Pro at position 6; C-terminal amide; disulfide cycle) [SEQ. ID. NO. 8 (Ac-D-Pro^6 analog of Ac-hMCH(6-16)-NH2)] | 120 | – | – | – | – | – | – | – | – | – | – | – | –
19 | XCMLGRVYRPC (N-terminal acetyl; D-Asn at position 6; C-terminal amide; disulfide cycle) [SEQ. ID. NO. 10 (Ac-D-Asn^6 analog of Ac-hMCH(6-16)-NH2)] | 113 | 42 | – | – | – | – | – | – | – | – | – | 260 | –
20 | XCMLGRVYRPC (HELM PEPTIDE1{[ac].[dK].C.M.L.G.R.V.Y.R.P.C.[am]}$PEPTIDE1,PEPTIDE1,3:R3-12:R3$$$V2.0; SMILES CSCC[C@@H]1NC(=O)[C@@H](NC(=O)[C@@H](CCCCN)NC(C)=O)CSSC[C@@H](C(N)=O)NC(=O)[C@@H]2CCCN2C(=O)[C@H](CCCNC(=N)N)NC(=O)[C@H](Cc2ccc(O)cc2)NC(=O)[C@H](C(C)C)NC(=O)[C@H](CCCNC(=N)N)NC(=O)CNC(=O)[C@H](CC(C)C)NC1=O) [SEQ. ID. NO. 13 (Ac-D-Lys^6 analog of Ac-hMCH(6-16)-NH2)] | 130 | 55 | 1030 | 0.3 | – | – | – | – | – | – | – | 94 | 2100
21 | RCMLXRVYRPC (N-terminal acetyl; Nle (norleucine) at position 10; C-terminal amide; disulfide cycle) [SEQ. ID. NO. 18 (Nle^10 analog of Ac-hMCH(6-16)-NH2)] | – | – | – | 0.1 | 1.9 | 21 | 115 | – | 0.4 | 97 | – | – | –
22 | XCMLGRVYRPC (N-terminal acetyl; D-Ser at position 6; C-terminal amide; disulfide cycle) [SEQ. ID. NO. 11 (Ac-D-Ser^6 analog of Ac-hMCH(6-16)-NH2)] | 114 | 39 | – | – | – | – | – | – | – | – | – | 160 | –
